From patent publication US20210388087A1 (Chugai, published 2021)

B1: dBBDu202 (antibody, human IgG1, V domains shown)
VH: QVQLVESGGGLVQPGRSLRLSCAASGFTFSNAWMHWVRQAPGKGLEWVAQIKDKGNAYAAYYAPSVKGRFTISRDDSKNSIYLQMNSLKTEDTAVYYCHYVHYSAASTVLPAFGVDAWGQGTTVTVSS
VL: DIVMTQSPLSLPVTPGEPASISCRSSQSLVHSNRNTYLHWYQQKPGQAPRLLIYKVSNRFSGVPDRFSGSGSGTDFTLKISRVEAEDVGVYYCGQGTQVPYTFGQGTKLEIK
notes: human IgG1; GLS3000 light chain
B2: dBBDu183 (antibody, human IgG1, V domains shown)
VH: QVQLVESGGGLVQPGRSLRLSCAASGFTFSNAWMHWVRQAPGKGLEWVAQIKDKGNAYAAYYAPSVKGRFTISRDDSKNSIYLQMNSLKTEDTAVYYCHYVHYASASTVLPAFGVDAWGQGTTVTVSS
VL: DIVMTQSPLSLPVTPGEPASISCRSSQSLVHSNRNTYLHWYQQKPGQAPRLLIYKVSNRFSGVPDRFSGSGSGTDFTLKISRVEAEDVGVYYCGQGTQVPYTFGQGTKLEIK
notes: as for B1
B3: dBBDu179 (antibody, human IgG1, V domains shown)
VH: QVQLVESGGGLVQPGRSLRLSCAASGFTFSNAWMHWVRQAPGKGLEWVAQIKDRSNQYATYYAPSVKGRFTISRDDSKNSIYLQMNSLKTEDTAVYYCHYVHYASASTVLPAFGVDAWGQGTTVTVSS
VL: DIVMTQSPLSLPVTPGEPASISCRSSQSLVHSNRNTYLHWYQQKPGQAPRLLIYKVSNRFSGVPDRFSGSGSGTDFTLKISRVEAEDVGVYYCGQGTQVPYTFGQGTKLEIK
notes: as for B1
B4: dBBDu174 (antibody, human IgG1, V domains shown)
VH: QVQLVESGGGLVQPGRSLRLSCAASGFTFSSAWMHWVRQAPGKGLEWVAQIKDRASAYNAYYAESVKGRFTISRDDSKNSIYLQMNSLKTEDTAVYYCRYVHYPSYVSFLPYYGVDAWGQGTTVTVSS
VL: DIVMTQSPLSLPVTPGEPASISCRSSQSLVHSNRNTYLHWYQQKPGQAPRLLIYKVSNRFSGVPDRFSGSGSGTDFTLKISRVEAEDVGVYYCGQGTQVPYTFGQGTKLEIK
notes: as for B1
B5: dBBDu125 (antibody, human IgG1, V domains shown)
VH: QVQLVESGGGLVQPGRSLRLSCAASGFTFSIAWMHWVRQAPGKGLEWVAQIKDKVNGYTAYYAESVKGRFTISRDDSKNSIYLQMNSLKTEDTAVYYCRYVHYAAYYDVLGYGGVDAWGQGTTVTVSS
VL: DIVMTQSPLSLPVTPGEPASISCRSSQSLVHSNRNTYLHWYQQKPGQAPRLLIYKVSNRFSGVPDRFSGSGSGTDFTLKISRVEAEDVGVYYCGQGTQVPYTFGQGTKLEIK
notes: human IgG1; GLS3000 light chain; also called DXDU01_3 #019; DXDU01_3_#019
B6: dBBDu204 (antibody, human IgG1, V domains shown)
VH: QVQLVESGGGLVQPGRSLRLSCAASGFTFSNAWMHWVRQAPGKGLEWVAQIKDRSNNYATYYAESVKGRFTISRDDSKNSIYLQMNSLKTEDTAVYYCHYVHYASASTVLPAFGVDAWGQGTTVTVSS
VL: DIVMTQSPLSLPVTPGEPASISCRSSQSLVHSNRNTYLHWYQQKPGQAPRLLIYKVSNRFSGVPDRFSGSGSGTDFTLKISRVEAEDVGVYYCGQGTQVPYTFGQGTKLEIK
notes: as for B1
B7: dBBDu222 (antibody, human IgG1, V domains shown)
VH: QVQLVESGGGLVQPGRSLRLSCAASGFTISSAWMHWVRQAPGKGLEWVAQIKDRANGYAAYYAPSVKGRFTISRDDSKNSIYLQMNSLKTEDTAVYYCRYVHYATAYDGFYGFGVDAWGQGTTVTVSS
VL: DIVMTQSPLSLPVTPGEPASISCRSSQSLVHSNRNTYLHWYQQKPGQAPRLLIYKVSNRFSGVPDRFSGSGSGTDFTLKISRVEAEDVGVYYCGQGTQVPYTFGQGTKLEIK
notes: as for B1
B8: dBBDu205 (antibody, human IgG1, V domains shown)
VH: QVQLVESGGGLVQPGRSLRLSCAASGFTFSNAWMHWVRQAPGKGLEWVAQIKDRSQLYAAYYAPSVKGRFTISRDDSKNSIYLQMNSLKTEDTAVYYCHYVHYASASTVLPAFGVDAWGQGTTVTVSS
VL: DIVMTQSPLSLPVTPGEPASISCRSSQSLVHSNRNTYLHWYQQKPGQAPRLLIYKVSNRFSGVPDRFSGSGSGTDFTLKISRVEAEDVGVYYCGQGTQVPYTFGQGTKLEIK
notes: as for B1
B9: Dual-Fab H183/L072 variant with single light chain mutation K50Y (Kabat) (antibody, name in Kabat numbering, V domains shown)
VH: QVQLVESGGGLVQPGRSLRLSCAASGFTFSNAWMHWVRQAPGKGLEWVAQIKDKGNAYAAYYAPSVKGRFTISRDDSKNSIYLQMNSLKTEDTAVYYCHYVHYASASTVLPAFGVDAWGQGTTVTVSS
VL: DIVMTQSPLSLPVTPGEPASISCQASQELVHMNRNTYLHWYQQKPGQAPRLLIYYVSNRFPGVPDRFSGSGSGTDFTLKISRVEAEDVGVYYCAQGTSVPFTFGQGTKLEIK
notes: expressed as an antibody in Expi293 and purified on Protein A; also called dBBDu183H / dBBDu072L K50Y
B10: Dual-Fab H183/L072 variant with single light chain mutation A89Y (Kabat) (antibody, name in Kabat numbering, V domains shown)
VH: QVQLVESGGGLVQPGRSLRLSCAASGFTFSNAWMHWVRQAPGKGLEWVAQIKDKGNAYAAYYAPSVKGRFTISRDDSKNSIYLQMNSLKTEDTAVYYCHYVHYASASTVLPAFGVDAWGQGTTVTVSS
VL: DIVMTQSPLSLPVTPGEPASISCQASQELVHMNRNTYLHWYQQKPGQAPRLLIYKVSNRFPGVPDRFSGSGSGTDFTLKISRVEAEDVGVYYCYQGTSVPFTFGQGTKLEIK
notes: expressed as an antibody in Expi293 and purified on Protein A; also called dBBDu183H / dBBDu072L A89Y
B11: Dual-Fab H183/L072 variant with single light chain mutation N53Y (Kabat) (antibody, name in Kabat numbering, V domains shown)
VH: QVQLVESGGGLVQPGRSLRLSCAASGFTFSNAWMHWVRQAPGKGLEWVAQIKDKGNAYAAYYAPSVKGRFTISRDDSKNSIYLQMNSLKTEDTAVYYCHYVHYASASTVLPAFGVDAWGQGTTVTVSS
VL: DIVMTQSPLSLPVTPGEPASISCQASQELVHMNRNTYLHWYQQKPGQAPRLLIYKVSYRFPGVPDRFSGSGSGTDFTLKISRVEAEDVGVYYCAQGTSVPFTFGQGTKLEIK
notes: expressed as an antibody in Expi293 and purified on Protein A; also called dBBDu183H / dBBDu072L N53Y
B12: Dual-Fab H183/L072 variant with single light chain mutation F96Y (Kabat) (antibody, name in Kabat numbering, V domains shown)
VH: QVQLVESGGGLVQPGRSLRLSCAASGFTFSNAWMHWVRQAPGKGLEWVAQIKDKGNAYAAYYAPSVKGRFTISRDDSKNSIYLQMNSLKTEDTAVYYCHYVHYASASTVLPAFGVDAWGQGTTVTVSS
VL: DIVMTQSPLSLPVTPGEPASISCQASQELVHMNRNTYLHWYQQKPGQAPRLLIYKVSNRFPGVPDRFSGSGSGTDFTLKISRVEAEDVGVYYCAQGTSVPYTFGQGTKLEIK
notes: expressed as an antibody in Expi293 and purified on Protein A; also called dBBDu183H / dBBDu072L F96Y
B13: Dual-Fab H183/L072 variant with single light chain mutation P56Y (Kabat) (antibody, name in Kabat numbering, V domains shown)
VH: QVQLVESGGGLVQPGRSLRLSCAASGFTFSNAWMHWVRQAPGKGLEWVAQIKDKGNAYAAYYAPSVKGRFTISRDDSKNSIYLQMNSLKTEDTAVYYCHYVHYASASTVLPAFGVDAWGQGTTVTVSS
VL: DIVMTQSPLSLPVTPGEPASISCQASQELVHMNRNTYLHWYQQKPGQAPRLLIYKVSNRFYGVPDRFSGSGSGTDFTLKISRVEAEDVGVYYCAQGTSVPFTFGQGTKLEIK
notes: expressed as an antibody in Expi293 and purified on Protein A; also called dBBDu183H / dBBDu072L P56Y
B14: Dual-Fab H183/L072 variant with single light chain mutation F55Y (Kabat) (antibody, name in Kabat numbering, V domains shown)
VH: QVQLVESGGGLVQPGRSLRLSCAASGFTFSNAWMHWVRQAPGKGLEWVAQIKDKGNAYAAYYAPSVKGRFTISRDDSKNSIYLQMNSLKTEDTAVYYCHYVHYASASTVLPAFGVDAWGQGTTVTVSS
VL: DIVMTQSPLSLPVTPGEPASISCQASQELVHMNRNTYLHWYQQKPGQAPRLLIYKVSNRYPGVPDRFSGSGSGTDFTLKISRVEAEDVGVYYCAQGTSVPFTFGQGTKLEIK
notes: expressed as an antibody in Expi293 and purified on Protein A; also called dBBDu183H / dBBDu072L F55Y
B15: Dual-Fab H183/L072 variant with single light chain mutation G91Y (Kabat) (antibody, name in Kabat numbering, V domains shown)
VH: QVQLVESGGGLVQPGRSLRLSCAASGFTFSNAWMHWVRQAPGKGLEWVAQIKDKGNAYAAYYAPSVKGRFTISRDDSKNSIYLQMNSLKTEDTAVYYCHYVHYASASTVLPAFGVDAWGQGTTVTVSS
VL: DIVMTQSPLSLPVTPGEPASISCQASQELVHMNRNTYLHWYQQKPGQAPRLLIYKVSNRFPGVPDRFSGSGSGTDFTLKISRVEAEDVGVYYCAQYTSVPFTFGQGTKLEIK
notes: expressed as an antibody in Expi293 and purified on Protein A; also called dBBDu183H / dBBDu072L G91Y

Target: T1, biotin-labeled human CD137 fused to human IgG1 Fc fragment (human, UniProt Q07011 24-186, biotin-labeled)
T1 construct: also called human CD137-Fc; biotin-human CD137-Fc; not shown: human IgG1 Fc fragment
Experiment: bead ELISA, 1250 ng IgG, S/N over biotin-human Fc

T1 sequence (Q07011 24-186 limits assumed): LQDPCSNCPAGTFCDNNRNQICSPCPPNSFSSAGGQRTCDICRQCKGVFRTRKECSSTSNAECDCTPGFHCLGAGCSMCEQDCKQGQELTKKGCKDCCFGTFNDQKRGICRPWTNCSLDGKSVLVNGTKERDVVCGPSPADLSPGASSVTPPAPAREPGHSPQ

Binder	binding result
B1	binds
B2	binds
B3	binds
B4	binds
B5	binds
B6	binds
B7	binds
B8	binds

Target: T2, Human CD137 ECD (human)
T2 construct: also called human CD137 extracellular domain; hCD137
Experiment: SPR (Biacore), affinity of single-mutation variant against parental H183/L072

T2 sequence (chain, as listed by the source limits assumed): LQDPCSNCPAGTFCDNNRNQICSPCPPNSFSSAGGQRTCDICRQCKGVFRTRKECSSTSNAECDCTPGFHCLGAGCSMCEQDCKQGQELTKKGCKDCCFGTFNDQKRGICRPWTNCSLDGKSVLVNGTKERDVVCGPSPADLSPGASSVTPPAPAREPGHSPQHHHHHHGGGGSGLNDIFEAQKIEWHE

Binder	fold change of affinity for CD137
B9	0 fold
B10	0 fold
B11	0.3 fold
B12	0.6 fold
B13	0 fold
B14	0 fold
B15	0 fold
